In paper PMC8509488 one finds stoichiometry N data, which are given here for four substances.

Experiment [1] concerns the target CgHspB1S15D, phosphorylation mimic mutant of CgHspB1 (Ser15 replaced with Asp) (Chinese hamster). The experiment in a line: AUC; sedimentation velocity, Rayleigh interference optics, 40,000 rpm, buffer containing 20% ethylene glycol; 4 °C, 0.1 mg/mL.
Experiment [2] shares this target. The experiment in a line: AUC; sedimentation velocity, Rayleigh interference optics, 40,000 rpm, buffer containing 20% ethylene glycol; 4 °C, 0.5 mg/mL.
Experiment [3] shares this target. Kind of experiment: AUC; sedimentation velocity, Rayleigh interference optics, 40,000 rpm, buffer containing 20% ethylene glycol; 4 °C, 1.5 mg/mL.
Experiment [4] has the same target. Kind of experiment: AUC; sedimentation velocity, Rayleigh interference optics, 40,000 rpm, buffer containing 20% ethylene glycol; 25 °C, 0.5 mg/mL.
Experiment [5] has the same target. Kind of experiment: AUC; sedimentation velocity, Rayleigh interference optics, 40,000 rpm, buffer containing 20% ethylene glycol; 25 °C, 1.5 mg/mL.
The target is the same in experiment [6]. Kind of experiment: AUC; sedimentation velocity, Rayleigh interference optics, 40,000 rpm, buffer containing 20% ethylene glycol; 40 °C, 1.5 mg/mL.
For experiment [7] the target is unchanged. Kind of experiment: AUC; sedimentation velocity, Rayleigh interference optics, 40,000 rpm, buffer containing 20% ethylene glycol; 25 °C, 0.1 mg/mL.
Experiment [8] shares this target. Kind of experiment: AUC; sedimentation velocity, Rayleigh interference optics, 40,000 rpm, buffer containing 20% ethylene glycol; 40 °C, 0.1 mg/mL.
Experiment [9] shares this target. Kind of experiment: AUC; sedimentation velocity, Rayleigh interference optics, 40,000 rpm, buffer containing 20% ethylene glycol; 40 °C, 0.5 mg/mL.
The target in experiment [10] is CgHspB1C145S, CgHspB1 mutant with Cys145 replaced by Ser (Chinese hamster). The experiment in a line: AUC; sedimentation velocity, 40 °C, 0.5 mg/mL, with DTT.
Experiment [11] shares this target. Kind of experiment: AUC; sedimentation velocity, 40 °C, 0.5 mg/mL, without DTT (series with and without DTT).
Experiment [12] concerns the target CgHspB1 N-terminal deletion mutant (CgHspB1DeltaN), N-terminal 30 amino acids deleted, from pET23b (Chinese hamster). Kind of experiment: SEC; HPLC-SEC, SB-804HQ gel-filtration column, sample heated at the specified temperature for 30 min, buffer B (50 mM Tris-HCl pH 7.5, 0.1 mM EDTA, 150 mM NaCl) with or without 20% ethylene glycol, 1.0 mL/min.
Experiment [13] deals with HspB1 from Chinese hamster, wild type (CgHspB1WT) (Chinese hamster). Kind of experiment: AUC; sedimentation velocity, Rayleigh interference optics, 40,000 rpm, buffer containing 20% ethylene glycol; 25 °C, 0.5 mg/mL.
Experiment [14] shares this target. The experiment in a line: AUC; sedimentation velocity, Rayleigh interference optics, 40,000 rpm, buffer containing 20% ethylene glycol; 25 °C, 1.5 mg/mL.
The target is the same in experiment [15]. Kind of experiment: AUC; sedimentation velocity, Rayleigh interference optics, 40,000 rpm, buffer containing 20% ethylene glycol; 40 °C, 1.5 mg/mL.

Usually stoichiometry N stands for the number of molecules, sites or subunits per partner or assembly. Take “CgHspB1S15D, phosphorylation mimic mutant of CgHspB1 (Ser15 replaced with Asp) (natural protein)”: the stoichiometry N in [1] turned out to be 19; in [2], 19; in experiment [3], 18; in experiment [4] it was 19; in [5] it was 19; in experiment [6], 27. Also, the stoichiometry N in experiment [7] was 18; in experiment [8] it was 26; in [9], 26.

For the substance “CgHspB1C145S, CgHspB1 mutant with Cys145 replaced by Ser (natural protein)”, the stoichiometry N in [10] (c(s20,w) peak a) was 21; in [10] (c(s20,w) peak b), 25; in experiment [10] (c(s20,w) peak c), 32; in [11] (c(s20,w) peak a), 21; in experiment [11] (c(s20,w) peak b), 25; in [11] (c(s20,w) peak c) it was 33.

In turn, “CgHspB1 N-terminal deletion mutant (CgHspB1DeltaN), N-terminal 30 amino acids deleted, from pET23b (domain or fragment)” came in with a stoichiometry N in experiment [12] of 6.

On to “HspB1 from Chinese hamster, wild type (CgHspB1WT) (natural protein)”, for which the stoichiometry N in experiment [13] (c(s20,w) peak b) worked out at 6; in [13] (c(s20,w) peak c) it was 18; in experiment [14] (c(s20,w) peak a) it was 20; in experiment [14] (c(s20,w) peak b), 30; in experiment [15] (c(s20,w) peak a), 20; in experiment [15] (c(s20,w) peak b), 27. The stoichiometry N in experiment [15] (c(s20,w) peak c) was 38.
